Results as given in the supplement of paper PMC10598134.
± gives the standard deviation.

Test: collision cross section of modified peptide (TIMS, N2, iRT-aligned); higher = larger / more extended gas-phase ion
Procedure, shortened: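 Collision cross section values rest on the Mason-Schamp equation applied to calibrated, run-aligned mobility data from synthetic peptides. Mobility (1/K0) was calibrated with three reference ions and aligned per run to the median iRT peptide deviation, and 1–3 technical replicates of the most abundant feature per charge state were averaged. Data came from a timsTOF Pro/HT in dda-PASEF mode (nitrogen, ~2.4 mbar) after a 120-min nanoflow C18 gradient at 60 °C.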

[1] = charge state: 3, modification: Methyl (R)
[2] = charge state: 2, modification: Crotonyl
[3] = charge state: 3, modification: Crotonyl
[4] = charge state: 2, modification: Methyl (K)
[5] = charge state: 3, modification: Methyl (K)
[6] = charge state: 2, modification: hydroxyisobutyryl
[7] = charge state: 2, modification: Hydroxyproline
[8] = charge state: 2, modification: Acetyl (K)
[9] = charge state: 3, modification: hydroxyisobutyryl
[10] = charge state: 2, modification: Succinyl
[11] = charge state: 3, modification: Glutarylation
[12] = charge state: 2, modification: Malonyl
[13] = charge state: 2, modification: Citrullination (R)
[14] = charge state: 3, modification: Citrullination (R)

With “VTRYPILGIPQAHR [_VTR(Methyl (R))YPILGIPQAHR_]” the collision cross section [1] was 524.3 ± 0.78 Å².

For “ASDTSSETVFGKR [_ASDTSSETVFGK(Crotonyl)R_]”, the collision cross section [2] was 402.93 ± 0.81 Å² and the collision cross section [3] was 478.92 ± 1.3 Å².

Work on “TQDQISNIKYHEEFEK [_TQDQISNIK(Butyryl)YHEEFEK_]” yielded a collision cross section (charge state: 3, modification: Butyryl) of 559.77 ± 1.1 Å².

DHLSDKESK [_DHLSDK(Methyl (K))ESK_] gave a collision cross section [4] of 345.4 ± 1.5 Å² and a collision cross section [5] of 413.72 ± 4.7 Å².

“SGKFTQQDIDEAK [_SGK(hydroxyisobutyryl)FTQQDIDEAK_]” showed a collision cross section [6] of 423.01 ± 2.3 Å².

For “GFALVGVGSEASSKK [_GFALVGVGSEASSK(Trimethyl (K))K_]”, the collision cross section (charge state: 2, modification: Trimethyl (K)) was 444.52 ± 0.57 Å² and the collision cross section (charge state: 3, modification: Trimethyl (K)) was 489.21 ± 1.8 Å².

GLPGEPGPR [_GLPGEP(Hydroxyproline)GPR_] showed a collision cross section [7] of 312.79 ± 1.3 Å².

For “DASTLQSQKAEGTGDAK [_DASTLQSQK(Crotonyl)AEGTGDAK_]”, the collision cross section [2] was 438.12 ± 0.54 Å² and the collision cross section [3] was 513.07 ± 2.8 Å².

With “STGLELETPSLVPVKK [_STGLELETPSLVPVK(Acetyl (K))K_]” the collision cross section [8] was 431.84 ± 2.2 Å² and the collision cross section (charge state: 3, modification: Acetyl (K)) was 518.73 ± 1.1 Å².

Sequence “IINEPTAAAIAYGLDKK [_IINEPTAAAIAYGLDK(hydroxyisobutyryl)K_]” has a collision cross section [6] of 464.51 ± 4.5 Å² and a collision cross section [9] of 564.39 ± 3 Å².

For “IISSIEQKEENK [_IISSIEQK(hydroxyisobutyryl)EENK_]”, the collision cross section [6] was 408.38 ± 0.3 Å² and the collision cross section [9] was 478.99 ± 4 Å².

With LLEQKTQESQK [_LLEQK(Succinyl)TQESQK_] the collision cross section [10] was 400.32 ± 0.77 Å².

“VGLQVVAVKAPGFGDNR [_VGLQVVAVK(Gluratylation)APGFGDNR_]” showed a collision cross section (charge state: 2, modification: Glutarylation) of 447.64 ± 0.95 Å² and a collision cross section [11] of 510.32 ± 1 Å².

In the case of GSRGFPGEK [_GSRGFP(Hydroxyproline)GEK_], the collision cross section [7] is reported as 330.58 ± 0.79 Å².

For “LQAAYAGDKADDIQK [_LQAAYAGDK(Propionyl)ADDIQK_]”, the collision cross section (charge state: 2, modification: Propionyl) was 432.96 ± 1.1 Å².

With SEASSEFAKK [_SEASSEFAK(Methyl (K))K_] the collision cross section [4] was 357.88 ± 2.5 Å² and the collision cross section [5] was 426.48 ± 2.6 Å².

For ISALQGKLSK [_ISALQGK(Crotonyl)LSK_], the collision cross section [2] was 358.67 ± 0.88 Å².

For SLKLNTAEDAK [_SLK(GlyGly (K))LNTAEDAK_], the collision cross section (charge state: 2, modification: GlyGly (K)) was 394.52 ± 0.87 Å² and the collision cross section (charge state: 3, modification: GlyGly (K)) was 458.17 ± 2 Å².

Sequence “AAINQKLIETGER [_AAINQK(Acetyl (K))LIETGER_]” has a collision cross section [8] of 403.07 ± 1 Å².

Work on LDHLAEKFR [_LDHLAEK(Malonyl)FR_] yielded a collision cross section [12] of 366.99 ± 1.7 Å².

Work on “VNIGQGSHPQKVK [_VNIGQGSHPQK(Dimethyl (K))VK_]” yielded a collision cross section (charge state: 2, modification: Dimethyl (K)) of 407.47 ± 1.1 Å² and a collision cross section (charge state: 3, modification: Dimethyl (K)) of 469.28 Å².

“DSSPTTNSKLSALQR [_DSSPTTNSK(Crotonyl)LSALQR_]” showed a collision cross section [2] of 436.18 ± 0.54 Å² and a collision cross section [3] of 499.72 ± 1.3 Å².

“IPQEKCILQTDVK [_IPQEK(hydroxyisobutyryl)CILQTDVK_]” gave a collision cross section [6] of 438.91 ± 0.79 Å².

For SSFAYKDQNENR [_SSFAYK(Malonyl)DQNENR_], the collision cross section [12] was 401.56 ± 0.03 Å².

Work on “SDSGKPYYYNSQTK [_SDSGK(Succinyl)PYYYNSQTK_]” yielded a collision cross section [10] of 423.37 ± 1.1 Å².

Sequence “SSFAYKDQNENR [_SSFAYK(Methyl (K))DQNENR_]” has a collision cross section [4] of 422.28 ± 0.64 Å² and a collision cross section [5] of 455.52 ± 4 Å².

Sequence “GGGFGAHGRGR [_GGGFGAHGR(Citrullination (R))GR_]” has a collision cross section [13] of 343.86 ± 0.28 Å² and a collision cross section [14] of 412.59 ± 0.45 Å².

In the case of LEEVTGKLQVAR [_LEEVTGK(Succinyl)LQVAR_], the collision cross section [10] is reported as 394.87 ± 0.77 Å².

With FHYQDQEFLK [_FHY(Phospho (Y))QDQEFLK_] the collision cross section (charge state: 2, modification: Phospho (Y)) was 397.81 ± 0.64 Å² and the collision cross section (charge state: 3, modification: Phospho (Y)) was 447.23 ± 0.12 Å².

With “VDIDVPDVNIEGPDAKLK [_VDIDVPDVNIEGPDAK(Methyl (K))LK_]” the collision cross section [4] was 457.57 ± 0.42 Å² and the collision cross section [5] was 489.73 ± 3.2 Å².

In the case of “GFGRGGAESHTFK [_GFGR(Citrullination (R))GGAESHTFK_]”, the collision cross section [13] is reported as 413.94 ± 1 Å² and the collision cross section [14] is reported as 465.74 ± 2.2 Å².

Sequence “HGGSGGRGVSVSSAR [_HGGSGGR(Methyl (R))GVSVSSAR_]” has a collision cross section [1] of 477.29 ± 1.5 Å².

Sequence “SPPLPEHQKIPCNSAEPK [_SPPLPEHQK(Gluratylation)IPCNSAEPK_]” has a collision cross section [11] of 541.53 Å².
